As usually defined, the EC50 is the concentration giving half of the maximal effect. A low value points to greater potency. The term Kd denotes the free concentration of one partner at which half of the binding sites on the other are occupied at equilibrium, for simple one-to-one binding.

Changes are numbered by the printed parent chain.

For assay [1], the target named is T1, plasminogen-depleted human Fibrinogen (EMD/Calbiochem) (human, UniProt P02671 20-629; P02675 31-491; P02679 27-437, limits assumed).
T1 construct: Bought protein, IgG-depleted, coated on ELISA plates; also called FGN
T1 sequence (looked up) 1: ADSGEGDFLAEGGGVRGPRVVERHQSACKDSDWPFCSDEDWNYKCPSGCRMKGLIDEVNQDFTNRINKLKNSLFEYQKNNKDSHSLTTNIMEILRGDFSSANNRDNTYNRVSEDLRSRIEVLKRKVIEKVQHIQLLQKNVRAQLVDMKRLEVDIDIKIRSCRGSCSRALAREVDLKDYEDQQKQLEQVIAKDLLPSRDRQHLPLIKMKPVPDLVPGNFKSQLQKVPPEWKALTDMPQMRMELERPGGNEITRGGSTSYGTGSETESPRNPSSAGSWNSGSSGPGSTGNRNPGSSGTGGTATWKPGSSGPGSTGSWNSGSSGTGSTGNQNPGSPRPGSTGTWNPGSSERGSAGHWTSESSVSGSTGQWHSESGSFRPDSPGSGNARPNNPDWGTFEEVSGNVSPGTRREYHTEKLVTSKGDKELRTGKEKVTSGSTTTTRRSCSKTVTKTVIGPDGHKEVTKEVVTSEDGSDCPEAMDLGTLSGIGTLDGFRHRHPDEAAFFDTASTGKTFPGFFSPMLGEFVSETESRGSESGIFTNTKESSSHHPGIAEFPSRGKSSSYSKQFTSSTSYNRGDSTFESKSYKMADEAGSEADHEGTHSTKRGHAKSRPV
T1 sequence (looked up) 2: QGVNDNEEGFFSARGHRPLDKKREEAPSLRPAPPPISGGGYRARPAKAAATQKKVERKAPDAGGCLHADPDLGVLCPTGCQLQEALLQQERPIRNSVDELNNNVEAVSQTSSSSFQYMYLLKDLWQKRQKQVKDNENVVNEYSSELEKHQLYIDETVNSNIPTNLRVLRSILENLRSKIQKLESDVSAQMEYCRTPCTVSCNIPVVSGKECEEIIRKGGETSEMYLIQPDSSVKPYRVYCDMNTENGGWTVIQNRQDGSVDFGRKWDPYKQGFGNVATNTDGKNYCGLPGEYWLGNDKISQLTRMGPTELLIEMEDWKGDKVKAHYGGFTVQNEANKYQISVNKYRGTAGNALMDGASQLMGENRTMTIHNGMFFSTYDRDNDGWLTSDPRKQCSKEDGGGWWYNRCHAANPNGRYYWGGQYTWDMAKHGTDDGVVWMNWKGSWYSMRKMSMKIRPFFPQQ
T1 sequence (looked up) 3: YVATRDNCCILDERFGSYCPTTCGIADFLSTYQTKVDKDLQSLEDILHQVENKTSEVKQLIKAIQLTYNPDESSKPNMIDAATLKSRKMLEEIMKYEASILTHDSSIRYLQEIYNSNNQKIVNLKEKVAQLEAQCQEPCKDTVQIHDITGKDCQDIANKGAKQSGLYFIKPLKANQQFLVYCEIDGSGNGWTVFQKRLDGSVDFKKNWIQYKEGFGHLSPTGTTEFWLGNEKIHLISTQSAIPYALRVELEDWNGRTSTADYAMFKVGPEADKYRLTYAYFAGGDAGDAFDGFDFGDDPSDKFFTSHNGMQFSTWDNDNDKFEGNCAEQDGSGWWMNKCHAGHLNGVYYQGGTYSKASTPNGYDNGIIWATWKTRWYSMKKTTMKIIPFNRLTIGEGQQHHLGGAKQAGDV
Description: ELISA on coated human fibrinogen; curve did not reach saturation. On the procedure: The humanized antibodies affinity for fibrinogen, fibrin and P2 peptide were assessed by Enzyme-linked immunosorbent assays (ELISA)s (FIGS. 7-16). ELISAs for fibrinogen binding were performed using plasminogen-depleted human Fibrinogen (EMD/Calbiochem). […] IgG1-depleted Fibrinogen (FGN) in 20 mM HEPES/Saline buffer was added to each well of half of a 96-well Nunc Maxisorp™ ELISA plate. The ELISAs for fibrin binding were prepared by adding 50 mL of 20 mM HEPES/Saline buffer containing 14 mM CaCl₂, and 2 units thrombin to each well of the second half of the Nunc Maxisorp™ ELISA plate. 50 mL of 20 mg fibrinogen in 20 mM HEPES/Saline buffer were then added to a total volume of 100 mL. Plates were placed in a 37° C. incubator for 1 hour to allow fibrinogen to clot into fibrin and subsequently placed overnight into a plate dryer at 37° C. overnight. The ELISAs for P2 peptide were prepared by addition of […] of 30 mM P2 peptide in 20 mM HEPES/Saline buffer to each well of a 96-well Nunc Maxisorp™ ELISA plate. Plates were transferred to the plate dryer and dried overnight at 37° C. All ELISAs were preformed using Nunc MaxiSorp 96-well ELISA plates. Blocking was performed using 100 mL 5% BSA in DPBS are incubated at RT for 1 hour. Plates were washed 5× in DPBS containing 0.05% Tween-20 (EL406 was used for the addition of wash buffer only). 50 mL of primary antibodies was diluted in 0.5% BSA in DPBS, and the primary antibodies were added to the plates and incubated for 2 hours at 37° C. Plates were washed 5× in DPBS/Tween. 100 mL secondary antibodies were diluted in 0.5% BSA in DPBS. The secondary antibodies were then added to the plates and incubated for 1 hour at RT. Afterwards, plates were washed 5× in DPBS/Tween. 100 mL of TMB/E substrate solution was added, and the reaction was stopped after 5 minutes with 1N HCl.

Assay [2] concerns the target T2, P2 peptide comprising SEQ ID NO: 31 (human fibrin γ377-395) (human).
T2 construct: Bought (CPC Scientific 920712); also called human P2 peptide
T2 peptide: YSMKKTTMKIIPFNRLTIG
Description: SPR (Biacore) single cycle, steady state affinity; IgG from HEK supernatant captured, γ377-395 peptide analyte.

B1: humanized VH5/Vκ2 antibody (antibody, IgG1, V domains shown)
VH: QVQLVQSGAEVKKPGSSVKVSCKASGYTFTSYWIHWVRQAPGQGLEWIGLIDPSDSYTNYNQKFRGRVTITRDTSTSTAYMELSSLRSEDTAVYYCASSDPTGCWGQGTTVTVSS
VL: DIVMTQAAFSNPVTPGTPASISCRSSKSLLHSSGITYLSWYLQKPGQSPQLLIYQMSNLASGVPDRFSSSGSGTDFTLKISRVEAEDVGVYYCAQNLELPLTFGQGTKLEIK
notes: IgG1; also called VH5/VK2; VH5Vk2
In assay [1], B1 showed an EC50 of about 2.2 µM. Further, in assay [2], the Kd is 79 µM and the “Relative KD” value amounted to 1 fold against VH5/VK2.

B2: humanized VH4/Vκ2 antibody (antibody, IgG1, V domains shown)
VH: B1 VH with R72V
VL: B1 VL
notes: IgG1; also called VH4/VK2; VH4Vk2
As for B2, in assay [1], the EC50 is about 3.8 µM. Moreover, in assay [2], the Kd worked out at 47 µM and the “Relative KD” value is 1 fold against VH4/VK2.

B3: humanized VH6/Vκ2 antibody (antibody, IgG1, V domains shown)
VH: B1 VH with R65Q
VL: B1 VL
notes: Expressed as IgG1; also called VH6/VK2; VH6Vk2
In the case of B3, the EC50 in assay [1] is about 3.6 µM.

B4: humanized VH4/Vκ1 antibody (antibody, IgG1, V domains shown)
VH: B1 VH with R72V
VL: B1 VL with V13I, K79R
notes: Expressed as IgG1; also called VH4/VK1; VH4Vk1
B4 gave an EC50 in assay [1] of about 3.2 µM.

Values taken from patent publication US20240279357A1 (THERINI BIO, published 2024).
